Reference: patent US20240192215A1 (E AND S HEALTHCARE, published 2024)

Assays:
Peptide_005 [1] = molecular target: T1, Peptide_005 (human); assay: peptide microarray, head 0.08 ug (text 0.008 ug/mL)
T1 construct: 15-mer on microarray; not native form, recombinant insert region
T1 peptide: ADVHSQHHHHHHHHV
Method: (§1) 5, 1, 0.2, 0.04, 0.008 and 0.0016 μg/mL serial dilutions were incubated on a single multi-well microarray slide at 30° C. for 1 hour. The slide includes 21 individual mini-arrays (one mini-array per sample dilution).
(§2) DyLight 650 was used as a label. False-positive binding to a peptide was evaluated by performing one additional control incubation in which only a secondary antibody was applied on the same microarray slide. Before performing each step, the microarrays were washed with a washing buffer.

Peptide_004 = molecular target: T2, Peptide_004 (human); assay: as above
T2 construct: 15-mer on microarray; not native form, recombinant insert region
T2 peptide: AADVHSQHHHHHHHH
Method: as §1, §2

Peptide_005 [2] = molecular target: T1, Peptide_005; assay: peptide microarray, 0.0016 ug/mL
Method: as §1, §2

Peptide_021 = molecular target: T3, Peptide_021 (human); assay: peptide microarray, head 0.08 ug (text 0.008 ug/mL)
T3 construct: 15-mer of hTrx1 on microarray
T3 peptide: QIESKTAFQEALDAA
Method: as §1, §2

Peptide_015 [3] = molecular target: T4, Peptide_015 (human); assay: as above
T4 construct: 15-mer on microarray; not native form, includes recombinant insert region
T4 peptide: HHHHVKQIESKTAFQ
Method: as §1, §2

Peptide_014 [4] = molecular target: T5, Peptide_014 (human); assay: as above
T5 construct: 15-mer on microarray; not native form, includes recombinant insert region
T5 peptide: HHHHHVKQIESKTAF
Method: as §1, §2

Peptide_086 = molecular target: T6, Peptide_086 (human); assay: as above
T6 construct: 15-mer of hTrx1 on microarray
T6 peptide: CEVKCMPTFQFFKKG
Method: as §1, §2

Peptide_084 [5] = molecular target: T7, Peptide_084 (human); assay: as above
T7 construct: 15-mer of hTrx1 on microarray
T7 peptide: SECEVKCMPTFQFFK
Method: as §1, §2

Peptide_094 = molecular target: T8, Peptide_094 (human); assay: as above
T8 construct: 15-mer of hTrx1 on microarray
T8 peptide: FQFFKKGQKVGEFSG
Method: as §1, §2

Peptide_085 [6] = molecular target: T9, Peptide_085 (human); assay: as above
T9 construct: 15-mer of hTrx1 on microarray
T9 peptide: ECEVKCMPTFQFFKK
Method: as §1, §2

Peptide_025 = molecular target: T10, Peptide_025 (human); assay: as above
T10 construct: 15-mer of hTrx1 on microarray
T10 peptide: KTAFQEALDAAGDKL
Method: as §1, §2

Peptide_092 = molecular target: T11, Peptide_092 (human); assay: as above
T11 construct: 15-mer of hTrx1 on microarray
T11 peptide: PTFQFFKKGQKVGEF
Method: as §1, §2

Peptide_024 = molecular target: T12, Peptide_024 (human); assay: as above
T12 construct: 15-mer of hTrx1 on microarray
T12 peptide: SKTAFQEALDAAGDK
Method: as §1, §2

Peptide_045 = molecular target: T13, Peptide_045 (human); assay: as above
T13 construct: 15-mer of hTrx1 on microarray
T13 peptide: SATWCGPCKMIKPFF
Method: as §1, §2

Peptide_051 [7] = molecular target: T14, Peptide_051 (human); assay: as above
T14 construct: 15-mer of hTrx1 on microarray
T14 peptide: PCKMIKPFFHSLSEK
Method: as §1, §2

Peptide_093 [8] = molecular target: T15, Peptide_093 (human); assay: as above
T15 construct: 15-mer of hTrx1 on microarray
T15 peptide: TFQFFKKGQKVGEFS
Method: as §1, §2

Peptide_012 [9] = molecular target: T16, Peptide_012 (human); assay: as above
T16 construct: 15-mer on microarray; not native form, includes recombinant insert region
T16 peptide: HHHHHHHVKQIESKT
Method: as §1, §2

Peptide_020 [10] = molecular target: T17, Peptide_020 (human); assay: as above
T17 construct: 15-mer of hTrx1 on microarray
T17 peptide: KQIESKTAFQEALDA
Method: as §1, §2

Peptide_019 [11] = molecular target: T18, Peptide_019 (human); assay: as above
T18 construct: 15-mer of hTrx1 on microarray
T18 peptide: VKQIESKTAFQEALD
Method: as §1, §2

Peptide_018 = molecular target: T19, Peptide_018 (human); assay: as above
T19 construct: 15-mer on microarray; not native form, includes recombinant insert region; also called HVKQIESKTAFQEAL
T19 peptide: HVKQIESKTAFQEAL
Method: as §1, §2

Peptide_022 = molecular target: T20, Peptide_022 (human); assay: as above
T20 construct: 15-mer of hTrx1 on microarray
T20 peptide: IESKTAFQEALDAAG
Method: as §1, §2

Peptide_095 [12] = molecular target: T21, Peptide_095 (human); assay: as above
T21 construct: 15-mer of hTrx1 on microarray
T21 peptide: QFFKKGQKVGEFSGA
Method: as §1, §2

Peptide_013 [13] = molecular target: T22, Peptide_013 (human); assay: as above
T22 construct: 15-mer on microarray; not native form, includes recombinant insert region
T22 peptide: HHHHHHVKQIESKTA
Method: as §1, §2

Peptide_023 [14] = molecular target: T23, Peptide_023 (human); assay: as above
T23 construct: 15-mer of hTrx1 on microarray
T23 peptide: ESKTAFQEALDAAGD
Method: as §1, §2

Peptide_015 [15] = molecular target: T4, Peptide_015; assay: peptide microarray, 0.0016 ug/mL
Method: as §1, §2

Peptide_014 [16] = molecular target: T5, Peptide_014; assay: peptide microarray, 0.0016 ug/mL
Method: as §1, §2

Peptide_084 [17] = molecular target: T7, Peptide_084; assay: peptide microarray, 0.0016 ug/mL
Method: as §1, §2

Peptide_085 [18] = molecular target: T9, Peptide_085; assay: peptide microarray, 0.0016 ug/mL
Method: as §1, §2

Peptide_051 [19] = molecular target: T14, Peptide_051; assay: peptide microarray, 0.0016 ug/mL
Method: as §1, §2

Peptide_093 [20] = molecular target: T15, Peptide_093; assay: peptide microarray, 0.0016 ug/mL
Method: as §1, §2

Peptide_012 [21] = molecular target: T16, Peptide_012; assay: peptide microarray, 0.0016 ug/mL
Method: as §1, §2

Peptide_020 [22] = molecular target: T17, Peptide_020; assay: peptide microarray, 0.0016 ug/mL
Method: as §1, §2

Peptide_019 [23] = molecular target: T18, Peptide_019; assay: peptide microarray, 0.0016 ug/mL
Method: as §1, §2

Peptide_095 [24] = molecular target: T21, Peptide_095; assay: peptide microarray, 0.0016 ug/mL
Method: as §1, §2

Peptide_013 [25] = molecular target: T22, Peptide_013; assay: peptide microarray, 0.0016 ug/mL
Method: as §1, §2

Peptide_023 [26] = molecular target: T23, Peptide_023; assay: peptide microarray, 0.0016 ug/mL
Method: as §1, §2

B1: monoclonal antibody B266-1 (antibody, human IgG1)
light: QIVLTQSPAIMSASPGEKVTMTCSASSRISYMYWYQQKPGTSPKRWIYDTSKLASGVPARFSGSGSGTSYSLTISTMEAEDAATYYCHQRSSYPTFGAGTKLELKSVAAPSVFIFPPSDEQLKSGTASVVCLLNNFYPREAKVQWKVDNALQSGNSQESVTEQDSKDSTYSLSSTLTLSKADYEKHKVYACEVTHQGLSSPVTKSFNRGEC
heavy: not shown
notes: B266 with the Fc part changed to human IgG1; also called B266-1 (Trx1-hIgG1); B266-1 (hTrx1-hIgG1)
Peptide_005 [1]
  signal (blank-control = 1): 1.28
Peptide_004
  signal (blank-control = 1): 1
Peptide_005 [2]
  signal (blank-control = 1): 1.6

B2: monoclonal antibody B264 (antibody, mouse IgG1, kappa, V domains shown)
VH: QVQLQQSGAELARPGASVKMSCKASGYTFTSYTMHWVKQRPGQGLEWIGYINPTSDYTNYNQKFKDKATLTADKSSSTAYMQLSSLTSEDSAVYFCASEGGFLYYFDYWGQGTTLTVSS
VL: DVLMTQTPLSLPVSLGDQASISCRSSQSIVHSNGNTYLEWYLQKPGQSPKLLIYKVSNRFSGVPDRFSGSGSGTDFTLKISRVEAEDLGVYYCFQGSHVPYTFGGGTKLEIKR
notes: also called AB264; B264 (Trx1-mIgG1)
Peptide_021
  signal (blank-control = 1): 0.84
Peptide_015 [3]
  signal (blank-control = 1): 0.79
Peptide_014 [4]
  signal (blank-control = 1): 1.14
Peptide_086
  signal (blank-control = 1): 1.02
Peptide_084 [5]
  signal (blank-control = 1): 1.33
Peptide_094
  signal (blank-control = 1): 1
Peptide_085 [6]
  signal (blank-control = 1): 0.9
Peptide_025
  signal (blank-control = 1): 1.03
Peptide_092
  signal (blank-control = 1): 3.07
Peptide_024
  signal (blank-control = 1): 1
Peptide_045
  signal (blank-control = 1): 5.89
Peptide_051 [7]
  signal (blank-control = 1): 0.7
Peptide_093 [8]
  signal (blank-control = 1): 1.53
Peptide_012 [9]
  signal (blank-control = 1): 0.88
Peptide_020 [10]
  signal (blank-control = 1): 0.8
Peptide_019 [11]
  signal (blank-control = 1): 1.02
Peptide_018
  signal (blank-control = 1): 0.85
Peptide_022
  signal (blank-control = 1): 1
Peptide_095 [12]
  signal (blank-control = 1): 1.15
Peptide_013 [13]
  signal (blank-control = 1): 0.95
Peptide_023 [14]
  signal (blank-control = 1): 0.91
Peptide_015 [15]
  signal (blank-control = 1): 0.58
Peptide_014 [16]
  signal (blank-control = 1): 0.69
Peptide_084 [17]
  signal (blank-control = 1): 0.97
Peptide_085 [18]
  signal (blank-control = 1): 0.65
Peptide_051 [19]
  signal (blank-control = 1): 0.58
Peptide_093 [20]
  signal (blank-control = 1): 1.12
Peptide_012 [21]
  signal (blank-control = 1): 0.81
Peptide_020 [22]
  signal (blank-control = 1): 0.71
Peptide_019 [23]
  signal (blank-control = 1): 0.85
Peptide_095 [24]
  signal (blank-control = 1): 1.07
Peptide_013 [25]
  signal (blank-control = 1): 0.75
Peptide_023 [26]
  signal (blank-control = 1): 0.78
